Experimental data published in patent US20030091557.

System: ACE-2 inhibitor peptide (the most active ACE-2 inhibitor peptide)

Substance	hydrolysis of the substrate hip-his-leu (250 mM) by ACE (1.5 nM)	conversion of angiotensin I to A1-9 by ACE-2
Angiotensin converting enzyme (ACE)	the inhibitor did not affect the hydrolysis of the substrate, hip-his-leu (250 mM) by ACE (1.5 nM), even at 25 mM	
recombinant human ACE-2		This peptide also inhibited conversion of angiotensin I to A1-9 by ACE-2
